Legend:
dopaminergic neurons [1] = assay: [3H]dopamine uptake in primary cultures of embryonic ventral mesencephalon; format: cell-based, rat; conditions: 0.5 μM, 3 days
Description: (§1) Cell culture, dopamine uptake and treatment with MPP+have been described (Hartikka et al., 1992). Primary cultures containing dopaminergic neurons were prepared from the ventral mesencephalon of 14-day-old fetal rats and plated in 24 well plates. A culture well usually contained 6×10^5 cells/well, of which 3-5% were dopaminergic. Duplicate cultures were prepared for dopamine uptake or tyrosine hydroxylase staining. Dopamine uptake was measured using tritiated dopamine at concentrations of 50 nM (sp, act. 45 Ci/mmol, New England Nuclear). The survival of dopaminergic neurons in the culture was assayed by counting tyrosine hydroxylase (TH) immunopositive neurons, stained with a monoclonal antibody to TH (Boehringer Mannheim).
(§2) The monoclonal L1 antibodies 327 and 557.B6 (referred to as 557) were added to the culture medium on the day of plating at concentrations of 7.5-120 μg/ml and left for 3 days. In addition to treatment of the culture medium with antibodies, they were also substrate coated prior to plating of the cells, as described (Appel et al., 1993). In experiments with MPP^+ (active metabolite of methyl-phenyl-tetrahydropyridine, MPTP), antibodies or cAMP-elevating agents were added to the culture medium of 5-day-old cultures, followed by 1 μM MPP^+ on day 6 and cells were fixed on day 8 for immunocytochemistry. […]

dopaminergic neurons [2] = assay: Protection of dopaminergic neurons from MPP+ neurotoxicity; format: cell-based, rat; conditions: forskolin combined with PDE-IV inhibitor NQ-A
Description: as §1, §2

hippocampal neurons [3] = assay: Neurite outgrowth assay, hippocampal neurons; format: cell-based, rat; conditions: hippocampal neurons from 18-day embryos
Description: The tissue culture wells and glass cover slips (1.1 cm diameter) were incubated overnight at 4° C. with 0.01% poly-L-lysine (PLL) and washed three times with distilled water. L1-Fc or CHL1-Fc diluted in Ca/Mg-free Hank's Balanced Salt Solution were applied overnight at 4° C., at the concentrations indicated in the text. The wells and coverslips were washed twice with Hank's and once with seeding medium just before plating cells.
(§3) Hippocampal neurons were prepared from 18-day rat embryos as described (Lochter, A., et al (1991); Brewer, G. J., et al (1993)). Neurons were re-suspended and plated in serum-free Dulbecco's modified Eagle's medium/Nutrient Mix F12 (Life Technologies, Inc.) supplemented with N2 components, 33 mM D-glucose, 1 mM pyruvate, 1 mg/ml BSA, and 5 mM Hepes.
Cerebellar granule cells and hippocampal neurons were seeded into pro-treated 96-well tissue culture plates at a density of 1×10^4 cells or 5×10^3 cells per well, respectively, in 100 μl medium. Soluble fusion proteins were added, when used, 2 hours after seeding the cells, to avoid effects on initial adhesion. […] The lengths of individual neurite were analyzed and quantified with an IBAS image analysis system (Kontron). […] For each cell measured, the total length of all neurites was determined. In each experiment, 50 cells in each of three wells were analyzed. […]

cerebellar granule cells = conditions: 5 days in culture
hippocampal neurons [4] = assay: Cell survival assay (MTT), embryonic hippocampal neurons; format: cell-based, rat; conditions: 5 days in culture
Description: as §3

injured rat spinal cord = assay: Rat spinal cord contusion injury (NYU impactor), intrathecal infusion; format: in vivo; conditions: 15 μg/ml intrathecally, 6 rats without CyA; unpublished experiments
Description: The NYU Impactor and rat contusion models of spinal cord injury have been extensively described. [Kwo S, Young W, DeCrescito V (1989) Journal of Neurotrauma 6:13-24; Huang P, Young W (1994). Journal of Neurotrauma 11: 547-62; Basso M, Beattie M, Bresnahan J, Anderson DK, Faden A, et al. (1996) Journal of Neurotrauma in press; Constantini S, Young W (1994) Journal of Neurosurgery 80: 97-111]. Rats were anesthetized with an intraperitoneal dose of pentobarbital (40 mg/kg female, 60 mg/kg male), suspended with clamps placed on the T8 and T11 dorsal processes, and injured at one hour after induction of anesthesia. The impactor drops a 10 g rod a distance of 12.5, 25.0, or 50.0 mm onto the dorsal surface of T9-10 spinal cord, exposed by laminectomy. Two digital optical potentiometers measured the trajectory of the falling rod and vertebral movement with a precision of ±20 μm and ±20 μsec. Cord compression rate (Cr) was calculated from the distance of cord compression divided by time required for compression. […]
The rats received daily Keflin® (15 mg/kg b.i.d. subcutaneous) for one week after injury and then Baytril® (5 mg/kg b.i.d. subcutaneous) for 10 days for recurrent urinary tract infections. […] The rats were assessed weekly for locomotor recovery, using the Basso-Beattie-Bresnahan (BBB) scale developed at Ohio State University. […]

## COC(=O)c1cccc(-n2c(=O)n(Cc3ccccc3)c(=O)c3ccccc32)c1 [NQ-A, 1-(3-carbomethoxyphenyl)-3-benzyl-quinazoline-2,4-dione]
Dopaminergic neurons [1]
  dopamine uptake: slight elevation of dopamine uptake
Dopaminergic neurons [2]
  protection from MPP+ toxicity: effectively protects against MPP^+ toxicity

B1: CHL1-Fc: extracellular domain of mouse CHL1 fused to the Fc portion of human immunoglobulin IgG1 (protein)
chain: EIPLSVQQVPTIVKQSYVQVAFPFDEYFQIECEAKGNPEPIFSWTKDDKPFDLSDPRIIAANNSGTFKIPNEGHISHFQGKYRCFASNRLGTAVSEEIEFIVPGVPKFPKEKIEPIDVEEGDSIVLPCNPPKGLPPLHIYWMNIELEHIEQDERVYMSQRGDLYFANVEENDSRNDYCCFAAFPKLRTIVQKMPMKLTVNSSNSIKQRKPKLLLPPAQMGSLSAKTVLKGDTLLLECFAEGLPTPHIQWSKPGSELPEGRATIEVHEKTLKIENISYQDRGNYRCTANNLLGKASHDFHVTVEEPPRWKKKPQSAVYSTGSSGILLCEAEGEPQPTIKWRLNGLPIEKHPFPGDFMFPREISFTNLLFNHTGVYQCEASNIHGTILANANIDVIDVIPLIKTKNEENYATVVGYSAFLHCEYFASPKATVVWEVADETHPLEGDRYHTHENGTLEIYRTTEEDAGSYSCWVDNAMGKAVITANLDIRNATKLRVSPKNPRIPKSHVLELYCESQCDSHLKHSLKLSWSKDGEAFEMNGTEDGRIVIDGAYLTISNITAEDQGVYSCSAQTSLDSTSEKTQVTVLGVPDPPETFTCQKDKNRSVRLLREAGDDHNSKSASTIVEFEGNREEPGKWEELTRVQGEETDVVLSLAPYVRYQFRVTAVNEVGRSHASLPSDHHETPPAAPDKNPQNIRVQASQPKEMIIKWEPLKSMEQNGPGLEYKVSWKPQGAPEEWEEEIVTNHTLRVMTPTVYAPYDVKVQAINQLGSSPDPQPVTLYSGEDYPSTAPVIQRVDVMNSTLVKVTWSSIPKETVHGLLRGYQINWWKTKSLLDGRTHPKEVNILRFSGQRNSGMVPSLDPFSEFHLTVLAYNSKGAGPESEPYIFQTPEGVPEQPSFLKVIKVDKDTATLSWGLPKKLNGNLTGYLLQYQIINDTYELGELNEINVTTPSKSSWHLSNLNSTTKYKFYLRACTSRGCGKPISEEGATLGEGSKGIRKITEGVNVTQKIHPVEVLVPGAEHIVHLMTKNWGDNDSIFQDVIETRGREYAGLYDDISTQGW
modifications: left off: a dimerising Fc or GST
notes: extracellular domain of mouse CHL1 fused to the Fc portion of human immunoglobulin IgG1
Hippocampal neurons [3]
  neurite outgrowth: a stimulation was observed
Cerebellar granule cells
  morphological features of cultures: denser, generally healthier-looking cultures
Hippocampal neurons [4]
  concentration of maximal effect on survival: 1 µg/mL
  survival: enhanced survival

B2: NgCAM: immunogenic chick NgCAM given intrathecally (protein, UniProt Q03696 21-1266, looked up)
Neuronal-glial cell adhesion …: ITIPPEYGAHDFLQPPELTEEPPEQLVVFPSDDIVLKCVATGNPPVQYRWSREDQPFVPEEHGGVSVVPGSGTLVINATLAARLQGRFRCFATNALGTAVSPEANVIAENTPQWPKEKVTPVEVEEGDPVVLPCDPPESAVPPKIYWLNSDIVHIAQDERVSMGQDGNLYFSNAMVGDSHPDYICHAHFLGPRTIIQKEPLDLRVAPSNAVRSRRPRLLLPRDPQTTTIALRGGSVVLECIAEGLPTPWVRWRRLNGPLLPGGVGNFNKTLRLWGVTESDDGEYECVAENGRGTARGTHSVTVEAAPYWVRRPQSGVFGPGETARLDCEVGGKPRPQIQWSINGVPIEAAGAERRWLRGGALVLPELRPNDSAVLQCEARNRHGPLLANAFLHVVELPLRMLTADEQRYEVVENQTVFLHCRTFGAPAPNVEWLTPTLEPALQDDRSFVFTNGSLRVSAVRGGDGGVYTCMAQNAHSNGSLTALLEVRAPTRISAPPRSATAKKGETVTFHCGATFDPAVTPGELRWLRGGQPLPDDPRYSVAAEMTVSNVDYGDEGTIQCRASTPLDSAEAEAQLRVVGRPPSRDLQVMEVDEHRVRLSWTPGDDHNSPIEKFVVEEEEEREDLQRGFGAADVPGQPWTPPLPLSPYGRFPFRVVAVNAYGRGEHHAPSAPIETPPAAPERNPGGVHGEGNETGNLVITWEPLPPQAWNAPWARYRVQWRPLEEPGGGGPSGGFPWAESTVDAPPVVVGGLPPFSPFQIRVQAVNGAGKGPEATPGVGHSGEDLPLVYPENVGVELLNSSTVRVRWTLGGGPKELRGRLRGFRVLYWRLGWVGERSRRQAPPDPPQIPQSPAEDPPPFPPVALTVGGDARGALLGGLRPWSRYQLRVLVFNGRGDGPPSEPIAFETPEGVPGPPEELRVERLDDTALSVVERRTFKRSITGYVLRYQQVEPGSALPGGSVLRDPQCDLRGLNARSRYRLALPSTPRERPALQTVGSTKPEPPSPLWSRFGVGGRGGFHGAAVEFGAAQEDDVEFEVQFMNKSTDEPWRTSGRANSSLRRYRLEGLRPGTAYRVQFVGRNRSGENVAFWESEVQTNGTVVPQPGGGVCTKGWFIGFVSSVVLLLLILLILCFIKRSKGGKYSVKDKEDTQVDSEARPMKDETFGEYRSLESEAEKGSASGSGAGSGVGSPGRGPCAAGSEDSLAGYGGSGDVQFNEDGSFIGQYRGPGAGPGSSGPASPCAGPPLD
Injured rat spinal cord
  locomotor recovery and corticospinal tract regeneration: did not result in locomotor recovery or evidence of regenerating corticospinal tracts
